We go through one substance from article PMC12486813.

In the experiment the target is FcγRI (CD64) (UniProt P12314). The experiment is described as follows: BLI; binding-dissociation kinetics of FcγRI (CD64) with the antibody; who was immobilised not stated for this experiment; KD is the average of two independent experiments.
UniProt P12314, sequence (P12314 16-374): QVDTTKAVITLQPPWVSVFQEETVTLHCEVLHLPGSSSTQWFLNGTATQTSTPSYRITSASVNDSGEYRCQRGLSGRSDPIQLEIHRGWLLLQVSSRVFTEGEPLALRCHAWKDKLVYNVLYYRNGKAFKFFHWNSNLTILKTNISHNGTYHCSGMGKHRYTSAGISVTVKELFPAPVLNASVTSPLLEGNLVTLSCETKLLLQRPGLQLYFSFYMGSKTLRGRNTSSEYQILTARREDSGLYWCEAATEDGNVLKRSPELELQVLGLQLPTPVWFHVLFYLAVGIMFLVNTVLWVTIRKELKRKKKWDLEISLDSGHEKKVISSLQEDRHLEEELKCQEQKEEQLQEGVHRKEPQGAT

As for 5C8 (LALA) (antibody), the dissociation constant (Kd) is 4.82 µM. This lies in the single-digit micromolar range.
